The subject of this data set is MS2 coat protein. As to the kind of experiment: apparent KD of MS2 coat protein; designed switch direction (-1 OFF switch, 1 ON switch): -1; higher = weaker reporter binding. Summed up:
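Apparent KD, taken as the median over clusters for each design, was obtained by curve-fitting normalised cluster fluorescence. Designed RNA switches had been transcribed on Illumina chips by stalled E. coli RNA polymerase and titrated with SNAP-549-labelled MS2 coat protein, doubling from 0.7 or 1.5 nM to 3 µM.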

[1] abbreviates: Eterna round: R95, input ligand: FMN 200 uM.
Where [2] appears, read: Eterna round: R95, input ligand: microRNA oligo, concentration not stated.
Setting [3] is: Eterna round: R95, input ligand: none.
Setting [4] is: input ligand: microRNA oligo, concentration not stated.

Turning to “AGAUGACUGGAGGAUAUCCGAUGCUUCCUGCCAGGAGAAGGCCGGACAUGAGGAUCACCCAUGUGGUGAGCUCG [Vezaatinle] (puzzle: Exclusion 6)”, the “apparent KD of MS2 coat protein” value is, setting by setting: under setting [1], 329 nM; under setting [2], 347 nM; under setting [3], 444 nM.

Regarding “AGAUGGCGAGGAUAUACAUGAGGAUCACCCAUGUGAGAAGAAAGAGUGAGGAAGAAAAGUAGAAGGCGCUGUCA [Mat - Exclusion 3 - Mod of Salish D19] (puzzle: Exclusion 3)”, the “apparent KD of MS2 coat protein” value by setting is: under setting [1], 209 nM; under setting [2], 95.4 nM; under setting [3], 76.1 nM.

On to “AGAUGUAGAUACCGAUCCUACAUGAGGAUCACCCAUGUAGCUAGACGUGCACGCGAAGCUCGUCAGACUACCAGAAG [salish99_TOv1_r3_084] (puzzle: Sensor v3, turn-off variant 1)”, for which the “apparent KD of MS2 coat protein” value was 172 nM under setting [1], 144 nM under setting [2] and 261 nM under setting [3].

Regarding “AGAUUACGAGGAUAUCGAGUUUAGUACAUGAGGAUCACCCAUGUUAUCCAGGUCUCGUUUCGAGAAGGCGUGAUUC [LRO-Ex5-08] (puzzle: Exclusion 5)”, the “apparent KD of MS2 coat protein” value under setting [2] was found to be 200 nM.

With “AGCAACGUACAGGAUAUACUUCACCUUCUAGAAGUAGAAGGGUGCACAUGAGGAUCACCCAUGUUAGCGAGCAG [Eternabot (Original) Solution 25] (Eterna round: R97, puzzle: Exclusion 6)”, the “apparent KD of MS2 coat protein” value by setting is: (input ligand: FMN 200 uM) 18.4 nM; (input ligand: none) 15.9 nM.

“AGCACGACUGCAGGAUAUUCCGCAGUUGAUGCGGGAGAAGGGCAGGGCAGCACUUGAGGAUCACCCAAGUGACCGUGUUGCCAA [Mutated MS2 EX1.7] (Eterna round: R96, puzzle: Exclusion NG 1)”: the “apparent KD of MS2 coat protein” value runs as follows: (input ligand: FMN 200 uM) 35.8 nM; under setting [4], 17.2 nM; (input ligand: none) 25.1 nM.

For “AGCAGACGAGGAUAUAAACGAUAUAACAUGAGGAUCACCCAUGUACGAUCGAUAGAUCGUUUAGAAGGCGUCUGCU [E5/9-A1] (Eterna round: R97, puzzle: Exclusion 5)”, the “apparent KD of MS2 coat protein” value by setting is: (input ligand: FMN 200 uM) 14.5 nM; (input ligand: none) 13.1 nM.

Turning to “AGCAGACGAGGAUAUGAUUAAUAAUACAUGAGGAUCACCCAUGUAAUACUGAUCUAUGGAUCAGAAGGCGUCUGCU [E5/6-A2] (Eterna round: R97, puzzle: Exclusion 5)”, the “apparent KD of MS2 coat protein” value is, setting by setting: (input ligand: FMN 200 uM) 12 nM; (input ligand: none) 16.6 nM.

For the sequence “AGCAGGCAUUCCUCUGGACACAUGAGGAUCACCCAUGUUCGUCGCUCGCAGCGUUGAGGCAUUACCCUUAACGCUUU [Eternabot (Original) Solution 29] (Eterna round: R97, puzzle: Sensor, turn-off variant 1)”, the “apparent KD of MS2 coat protein” value by setting is: (input ligand: FMN 200 uM) 52.5 nM; (input ligand: none) 48.8 nM.

As for “AGCAUGUGAGGAUAUGUACCUGAGUGCUUUGCGCUCAGGAAACAGAAGGCACAUGAGGAUCACCCAUGUGAAAA [jl-ex4-4.45 ViennaUCT mod] (Eterna round: R97, puzzle: Exclusion 4)”, the “apparent KD of MS2 coat protein” value (input ligand: FMN 200 uM) was determined as 68.7 nM and the “apparent KD of MS2 coat protein” value (input ligand: none) worked out at 281 nM.

As for “AGCCAAGCAGGAUAUACCCGGGAUAACAUGAGGAUCACCCAUGUGACCGAUUGAUGUCCUGUAGAAGGGCUUGGGA [Mod of ViennaUCT 21 - Jieux - Exclusion 5] (Eterna round: R97, puzzle: Exclusion 5)”, the “apparent KD of MS2 coat protein” value was 78.1 nM (input ligand: FMN 200 uM) and 28.3 nM (input ligand: none).

As to “AGCCCUUGUGUCAGGAUAUGCAUCCUUAAUGGACGGCAGAAGGGACAUGAGGAUCACCCAUGUAAAUAGAAAAU [Sodixeti] (puzzle: Brourd's mod of Exclusion 4)”, the “apparent KD of MS2 coat protein” value was found to be 30.1 nM under setting [1], 111 nM under setting [2] and 177 nM under setting [3].

For the sequence “AGCCUACAUGAGGAUCACCCAUGUCAGGAUAUCUCGCGACAUGUCAAGUUCACGUUGCAGAGAAGGGACUCGGG [Ononxe] (Eterna round: R96, puzzle: Exclusion 1)”, the “apparent KD of MS2 coat protein” value came out at 108 nM (input ligand: FMN 200 uM), 41 nM under setting [4] and 54.1 nM (input ligand: none).

As to “AGCCUACAUGAGGAUCACCCAUGUCAGGAUAUCUCGCGACAUGUCAAGUUCACGUUGCAGAGAAGGGACUCGGG [Ononxe] (puzzle: Exclusion 1)”, the “apparent KD of MS2 coat protein” value under setting [2] turned out to be 47.8 nM.

Consider “AGCGAUUCAGGAUAUACGGGUGGGCUGGAUCUUGGAGGAGUACAUGAGGAUCACCCAUGUAGAAGGGAAUUUUC [Eternabot (L2) Solution 35] (Eterna round: R97, puzzle: Exclusion 2)”, for which the “apparent KD of MS2 coat protein” value is, setting by setting: (input ligand: FMN 200 uM) 95.5 nM; (input ligand: none) 40.2 nM.

As to “AGCGCCAUCGUGAGAUGGCGUAUUACAUGAGGAUCACCCAUGUAGGAUAUCGAUUGCUUUGCAGUCGAGAAGGGCAUGUUCUAG [JL ENG3 3.80 Mod G] (Eterna round: R96, puzzle: Exclusion NG 3)”, the “apparent KD of MS2 coat protein” value runs as follows: (input ligand: FMN 200 uM) 82.4 nM; under setting [4], 35.8 nM; (input ligand: none) 73.6 nM.

On to “AGCUAGUCAGGAUAUACAAACAUGUCAAAAGACGUGAAGGGACAUGAGGAUCACCCAUGUAGAAGGGACUAGCA [Web Mod 74% 2] (Eterna round: R96, puzzle: Exclusion 2)”, for which the “apparent KD of MS2 coat protein” value was determined as 304 nM (input ligand: FMN 200 uM), 43.1 nM under setting [4] and 49.2 nM (input ligand: none).

Regarding “AGCUAGUCAGGAUAUUCUAAUAAUUACAUGAGGAUCACCCAUGUGCAUAGACAAGGGUGUGAAGAAGGGACUAGCG [Omei Ex5 A7] (Eterna round: R97, puzzle: Exclusion 5)”, the “apparent KD of MS2 coat protein” value is, setting by setting: (input ligand: FMN 200 uM) 797 nM; (input ligand: none) 2530 nM.

For “AGCUAGUCAGGAUAUUCUAAUGAUUACAUGAGGAUCACCCAUGUGAAUGGACAAGGGUGUGAAGAAGGGACUAGCG [Omei Ex5 A10] (Eterna round: R97, puzzle: Exclusion 5)”, the “apparent KD of MS2 coat protein” value runs as follows: (input ligand: FMN 200 uM) 426 nM; (input ligand: none) 4030 nM.

On to “AGCUAGUCAGUAGGAUAUGUAGGAUAUGUGGUUGAGGUUCACCCAACCACAUCAACGACAGAAGGACAGAAGGACUGGUUAGCA [pwkr exNG2 2xFMN 1xF5.5] (Eterna round: R96, puzzle: Exclusion NG 2)”, for which the “apparent KD of MS2 coat protein” value (input ligand: FMN 200 uM) was determined as 2320 nM, the “apparent KD of MS2 coat protein” value under setting [4] came to 1210 nM and the “apparent KD of MS2 coat protein” value (input ligand: none) came out at 2810 nM.

Regarding “AGCUAGUGCCGAGGAUAUACAUGAGGAUCACCCAUGUAAGCCAGUCGGUUUCUGACUGGCAAUAUGUAGAAGGCGGCGUUGGCA [JL ENG2 1.49] (Eterna round: R96, puzzle: Exclusion NG 2)”, the “apparent KD of MS2 coat protein” value came to 48.2 nM (input ligand: FMN 200 uM), 11.3 nM under setting [4] and 16.6 nM (input ligand: none).

Regarding “AGCUAGUGCCGAGGAUAUGAUACAUGAGGAUCACCCAUGUGUAGGGUGUAUAUAUAUCAAUAAUAUUAGAAGGCGGCGUUGGCA [JL ENG2 1.47] (Eterna round: R96, puzzle: Exclusion NG 2)”, the “apparent KD of MS2 coat protein” value (input ligand: FMN 200 uM) is 785 nM, the “apparent KD of MS2 coat protein” value under setting [4] came out at 480 nM and the “apparent KD of MS2 coat protein” value (input ligand: none) stood at 1480 nM.

“AGCUGGUCAGGAUAUUUGGAGGGACUCCAAUGGUCCACGACGGAGAAGGGACAUGAGGAUCACCCAUGUGGUCG [Eternabot (L2) Solution 13] (Eterna round: R97, puzzle: Exclusion 4)”: the “apparent KD of MS2 coat protein” value is, setting by setting: (input ligand: FMN 200 uM) 69.3 nM; (input ligand: none) 115 nM.

(Values after the supplement of paper PMC9170038.)
